The values that follow come from PMC12592377.

The experiment concerns the target HIV-1 capsid (CA) protein (HIV-1). In words: cryo-EM structure; cryo-ET of cryo-FIB lamellae with template matching and subtomogram averaging (C6 symmetry kept) of CA hexamers in capsid lattices of isolated VLP cores incubated with permeabilized CEM cells, EGS-fixed; cores outside the nucleus (approaching and docking), traversing the NPC and imported.

As usually defined, the stoichiometry N is a count of units in the complex or per binding partner. For “HIV-1 capsid (CA) protein (natural protein)”, the stoichiometry N stood at 6.
